Our source for the protein stability index values is the supplement of paper PMC10567573.

First the molecules themselves.
B1: APBB1IP (parent)
chain: PPEPLSQVSMWDQRWQDHQPLLPI
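Also: lentivirally expressed fusions sorted by FACS into six bins by GFP to DsRed ratio, PSI derived from sequencing read proportions per bin multiplied by bin number.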

Variants of B1 are the subject of the data set. The experiment in a line: protein stability index of a GFP-peptide fusion (GPS, HEK-293T) (PSI 1-6); higher = more stable. As to conditions: c terminus: a fixed tail appended.
Take PPEPLSQVSMWDQRWQDHQDLLPI: the protein stability index turned out to be 3.33.

In the case of PPEPLSQVSMWDQRWQDHQGLLPI, the protein stability index is 3.38.

With PPEPLSQVSMWDQRWQDHQFLLPI, the protein stability index is 2.37.

As to PPEPLSQVSMWDQRWQDHQALLPI, the protein stability index turned out to be 2.75.

As for PPEPLSQVSMWDQRWQDHQMLLPI, the protein stability index was 3.03.

Take PPEPLSQVSMWDQRWQDHQKLLPI: the protein stability index is 2.05.

Regarding PPEPLSQVSMWDQRWQDHQVLLPI, the protein stability index stood at 2.91.

As to PPEPLSQVSMWDQRWQDHQSLLPI, the protein stability index turned out to be 3.37.

PPEPLSQVSMWDQRWQDHQCLLPI: the protein stability index worked out at 2.95.

PPEPLSQVSMWDQRWQDHQRLLPI: the protein stability index was determined as 2.8.

In the case of PPEPLSQVSMWDHRWQDHQPLLPI, the protein stability index was 2.79.

For PPEPLSQVSMWDGRWQDHQPLLPI, the protein stability index was 2.63.

As to PPEPLSQVSMWDKRWQDHQPLLPI, the protein stability index is 2.76.

For the variant PPEPLSQVSMWDLRWQDHQPLLPI, the protein stability index is 2.16.

For PPEPLSQVSMWDRRWQDHQPLLPI, the protein stability index is 2.6.

Consider PPEPLSQVSMWDSRWQDHQPLLPI, for which the protein stability index amounted to 3.29.

With PPEPLSQVSMWDQRWQCHQPLLPI, the protein stability index was determined as 2.6.

As for PPEPLSQVSMWDQRWQGHQPLLPI, the protein stability index was 2.81.

As to PPEPLSQVSMWDQRWQNHQPLLPI, the protein stability index is 3.15.

PPEPLSQVSMWDQRWQYHQPLLPI: the protein stability index was 2.25.

As to PPEPLSQVSMWDQRWQKHQPLLPI, the protein stability index came to 2.78.

On to PPEPLSQVSMWDQRWQLHQPLLPI, for which the protein stability index was 3.26.

Consider PPEPLSQVSMWDQRWQFHQPLLPI, for which the protein stability index came out at 2.08.

As for PPEPLSQVSMWDQRWQHHQPLLPI, the protein stability index came out at 2.44.

In the case of PPEPLSQVSMWDQRWQQHQPLLPI, the protein stability index turned out to be 2.57.

On to PPEPLSQVSMWDQRWQEHQPLLPI, for which the protein stability index turned out to be 2.97.

On to PPEPLSQVSMWDQRWQRHQPLLPI, for which the protein stability index was found to be 2.91.

For PPEPLSQVSMSDQRWQDHQPLLPI, the protein stability index stood at 4.04.

On to PPEPLSQVSMDDQRWQDHQPLLPI, for which the protein stability index is 4.4.

Consider PPEPLSQVSMCDQRWQDHQPLLPI, for which the protein stability index came to 3.16.

As for PPEPLSQVSMLDQRWQDHQPLLPI, the protein stability index is 3.77.

For PPEPLSQVSMYDQRWQDHQPLLPI, the protein stability index was 3.51.

Consider PPEPLSQVSMEDQRWQDHQPLLPI, for which the protein stability index is 4.18.

Consider PPEPLSQVSMWTQRWQDHQPLLPI, for which the protein stability index came to 3.07.

Regarding PPEPLSQVSMWQQRWQDHQPLLPI, the protein stability index came to 2.11.

As for PPEPLSQVSMWAQRWQDHQPLLPI, the protein stability index came out at 2.64.

For PPEPLSQVSMWMQRWQDHQPLLPI, the protein stability index came to 2.33.

PPEPLSQVSMWLQRWQDHQPLLPI: the protein stability index amounted to 2.22.

PPEPLSQVSMWKQRWQDHQPLLPI: the protein stability index came out at 3.37.

Turning to PPEPLSQVSMWPQRWQDHQPLLPI, the protein stability index is 2.89.

PPEPLSQVSMWIQRWQDHQPLLPI: the protein stability index is 2.48.

Regarding PPEPLSQVSMWVQRWQDHQPLLPI, the protein stability index worked out at 2.23.

Regarding PPEPLSQVSMWFQRWQDHQPLLPI, the protein stability index is 2.13.

As to PPEPLSQVSMWSQRWQDHQPLLPI, the protein stability index amounted to 2.73.

Turning to PPEPLSQVSMWYQRWQDHQPLLPI, the protein stability index was 2.31.

In the case of PPEPLSQVSMWDQRWQDVQPLLPI, the protein stability index amounted to 2.83.

With PPEPLSQVSMWDQRWQDEQPLLPI, the protein stability index was 4.14.

In the case of PPEPLSQVSMWDQRWQDCQPLLPI, the protein stability index turned out to be 3.12.

For PPEPLSQVSMWDQRWQDPQPLLPI, the protein stability index was 3.34.

As to PPEPLSQVSMWDQRWQDIQPLLPI, the protein stability index was 2.69.

As for PPEPLSQVSMWDQRWQDMQPLLPI, the protein stability index amounted to 2.71.

As for PPEPLSQVSMWDQRWQDWQPLLPI, the protein stability index worked out at 3.02.

Regarding PPEPLSQVSMWDQRWQDTQPLLPI, the protein stability index was 3.44.

For PPEPLSQVSMWDQRWQDSQPLLPI, the protein stability index is 3.11.

As for PPEPLSQVSMWDQRWQDNQPLLPI, the protein stability index stood at 2.97.

For PPEPLSQVSMWDQRWQDFQPLLPI, the protein stability index was determined as 2.4.

Take PPEPLSQVSMWDQRWQDQQPLLPI: the protein stability index is 3.01.

On to PPEYLSQVSMWDQRWQDHQPLLPI, for which the protein stability index was determined as 2.87.

As to PPETLSQVSMWDQRWQDHQPLLPI, the protein stability index came to 3.1.

PPENLSQVSMWDQRWQDHQPLLPI: the protein stability index turned out to be 2.93.

Consider PPEILSQVSMWDQRWQDHQPLLPI, for which the protein stability index is 2.52.

As for PPEVLSQVSMWDQRWQDHQPLLPI, the protein stability index was determined as 2.61.

In the case of PPERLSQVSMWDQRWQDHQPLLPI, the protein stability index is 2.55.

As for PPEWLSQVSMWDQRWQDHQPLLPI, the protein stability index is 2.3.

On to PPEELSQVSMWDQRWQDHQPLLPI, for which the protein stability index worked out at 3.34.

In the case of PPEGLSQVSMWDQRWQDHQPLLPI, the protein stability index is 2.79.

In the case of PPEPLSQVSMWDQKWQDHQPLLPI, the protein stability index is 3.06.

On to PPEPLSQVSMWDQHWQDHQPLLPI, for which the protein stability index worked out at 3.19.

Regarding PPEPLSQVSMWDQWWQDHQPLLPI, the protein stability index was 3.29.

Turning to PPEPLSQVSMWDQEWQDHQPLLPI, the protein stability index was found to be 3.74.

In the case of PPEPLSQVSMWDQDWQDHQPLLPI, the protein stability index came out at 3.59.

For the variant PPEPLSQVSMWDQVWQDHQPLLPI, the protein stability index was found to be 2.92.

PPEPLSQVSMWDQMWQDHQPLLPI: the protein stability index is 2.68.

Turning to PPEPLSQVSMWDQFWQDHQPLLPI, the protein stability index was 2.86.

With PPEPLSQVSMWDQRWQDHQPLIPI, the protein stability index amounted to 2.49.

Take PPEPLSQVSMWDQRWQDHQPLYPI: the protein stability index was found to be 2.44.

Take PPEPLSQVSMWDQRWQDHQPLTPI: the protein stability index stood at 3.74.

For PPEPLSQVSMWDQRWQDHQPLCPI, the protein stability index turned out to be 3.5.

PPEPLSQVSMWDQRWQDHQPLGPI: the protein stability index was 3.8.

Turning to PPEPLSQVSMWDQRWQDHQPLPPI, the protein stability index turned out to be 3.12.

Turning to PPEPLSQVSMWDQRWQDHQPLFPI, the protein stability index turned out to be 2.77.

In the case of PPEPLSQVSMWDQRWQDHQPLNPI, the protein stability index turned out to be 3.55.

Regarding PPEPSSQVSMWDQRWQDHQPLLPI, the protein stability index is 3.26.

For the variant PPEPVSQVSMWDQRWQDHQPLLPI, the protein stability index stood at 2.99.

For the variant PPEPPSQVSMWDQRWQDHQPLLPI, the protein stability index was determined as 3.88.

For the variant PPEPQSQVSMWDQRWQDHQPLLPI, the protein stability index stood at 3.53.

For PPEPLSQVSMWDQRWQDHQPLLTI, the protein stability index was found to be 2.77.

Regarding PPEPLSQVSMWDQRWQDHQPLLAI, the protein stability index was found to be 2.05.

As to PPEPLSQVSMWDQRWQDHQPLLII, the protein stability index was 2.04.

Consider PPEPLSQVSMWDQRWQDHQPLLQI, for which the protein stability index came out at 2.39.

Turning to PPEPLSQVSMWDQRWQDHQPLLVI, the protein stability index was 2.92.

Consider PPEPLSQVSMWDQRWQDHQPLLFI, for which the protein stability index was found to be 1.67.

Take PPEPLSQVSMWDQRFQDHQPLLPI: the protein stability index amounted to 3.62.

Consider PPEPLSQVSMWDQRDQDHQPLLPI, for which the protein stability index worked out at 4.34.
